B1: HN1L (protein, UniProt Q9H910 1-190, looked up)
Jupiter microtubule …: MFQVPDSEGGRAGSRAMKPPGGESSNLFGSPEEATPSSRPNRMASNIFGPTEEPQNIPKRTNPPGGKGSGIFDESTPVQTRQHLNPPGGKTSDIFGSPVTATSRLAHPNKPKDHVFLCEGEEPKSDLKAARSIPAGAEPGEKGSARKAGPAKEQEPMPTVDSHEPRLGPRPRSHNKVLNPPGGKSSISFY
B2: SAP30BP (protein, UniProt Q9UHR5 1-308, looked up)
SAP30-binding protein: MAGKKNVLSSLAVYAEDSEPESDGEAGIEAVGSAAEEKGGLVSDAYGEDDFSRLGGDEDGYEEEEDENSRQSEDDDSETEKPEADDPKDNTEAEKRDPQELVASFSERVRNMSPDEIKIPPEPPGRCSNHLQDKIQKLYERKIKEGMDMNYIIQRKKEFRNPSIYEKLIQFCAIDELGTNYPKDMFDPHGWSEDSYYEALAKAQKIEMDKLEKAKKERTKIEFVTGTKKGTTTNATSTTTTTASTAVADAQKRKSKWDSAIPVTTIAQPTILTTTATLPAVVTVTTSASGSKTTVISAVGTIVKKAKQ

Test system: BirA*-FLAG-GATAD1 variants in Flp-In-293 cells
Experiment: BioID proximity labelling of full-length GATAD1 variants (SILAC)
Format: cell-based, human
Conditions: GATAD1 WT vs S102P, significant proteins only; for Log2_Ratio.H.L.normalized.WT_S102P_forward: forward experiment (label swap performed, sign inverted against the H/L ratio); for Log2_Ratio.H.L.normalized.WT_S102P_forward / Log2_Ratio.H.L.normalized.WT_S102P_reverse: log2 of normalized H/L ratio; for Ratio.H.L.normalized.WT_S102P_forward: forward experiment; for Log2_Ratio.H.L.normalized.WT_S102P_reverse / Ratio.H.L.normalized.WT_S102P_reverse: reverse experiment
Procedure, shortened: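 Tetracycline-inducible Flp-In-293 T-REx lines expressing N-terminal BirA*-FLAG GATAD1 variants (WT, S102P, S102D, S102A) were SILAC-labelled, induced with 1 μg/mL tetracycline for 24 h and given 50 μM biotin overnight. Streptavidin-enriched proteins were trypsin-digested on-bead and analysed by LC-MS/MS. Label-swapped log2 SILAC ratios beyond ±1 defined differential proteins (n = 2).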

| Molecule | Log2_Ratio.H.L.normalized.WT_S102P_forward | Ratio.H.L.normalized.WT_S102P_forward | Log2_Ratio.H.L.normalized.WT_S102P_reverse | Ratio.H.L.normalized.WT_S102P_reverse |
| --- | --- | --- | --- | --- |
| B1 | 1.324 | 0.3994 | 1.259 | 2.3935 |
| B2 | 1.673 | 0.3135 | 1.201 | 2.2985 |

Source: article PMC11009412, “Pathogenic mutations of human phosphorylation sites affect protein–protein interactions” (Nature Communications, 2024)
